Where “and” joins values, the source holds several entries; their conditions need not be identical. Identical values can stand only once.
Legend:
hCMEC/D3 = details: BBB-representing cell line hCMEC/D3; cited from earlier work
human OCT1*1 (wild-type) [1] = target: T1, human OCT1*1 (wild-type) (Homo sapiens, UniProt O15245); test: Concentration-dependent uptake (transport kinetics) in HEK293 cells overexpressing OCT1 wild-type; details: for Clint (±SEM): intrinsic clearance = ratio of Vmax and KM, OCT1 wild-type
T1 sequence (O15245 1-554): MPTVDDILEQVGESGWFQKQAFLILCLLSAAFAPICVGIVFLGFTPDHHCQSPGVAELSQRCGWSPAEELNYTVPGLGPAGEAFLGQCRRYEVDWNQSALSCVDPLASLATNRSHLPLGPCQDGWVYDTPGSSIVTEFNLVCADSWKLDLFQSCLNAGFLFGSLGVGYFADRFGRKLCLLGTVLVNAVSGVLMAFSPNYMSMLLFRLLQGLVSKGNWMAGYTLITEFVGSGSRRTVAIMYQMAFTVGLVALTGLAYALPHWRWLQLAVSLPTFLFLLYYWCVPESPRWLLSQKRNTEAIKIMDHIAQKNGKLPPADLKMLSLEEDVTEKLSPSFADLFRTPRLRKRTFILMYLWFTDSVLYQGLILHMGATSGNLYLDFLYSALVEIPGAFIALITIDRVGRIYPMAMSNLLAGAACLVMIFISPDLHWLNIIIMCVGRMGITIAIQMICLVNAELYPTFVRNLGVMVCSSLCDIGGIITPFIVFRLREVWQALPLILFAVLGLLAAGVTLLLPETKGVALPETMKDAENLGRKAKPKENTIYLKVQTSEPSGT

OCT3 = target: T2, OCT3 (Homo sapiens, UniProt O75751); test: Cellular uptake ratio, OCT3-overexpressing HEK293 cells vs empty vector; assay type: cell-based; details: for OCT3 transport category: based on ratio uptake data at 1 µM
T2 construct: expressed in transfected cells; host or cells: HEK293, stably transfected; gift from Dr. Koepsell and Dr. Gorbulev (University of Würzburg)
T2 sequence (O75751 1-556): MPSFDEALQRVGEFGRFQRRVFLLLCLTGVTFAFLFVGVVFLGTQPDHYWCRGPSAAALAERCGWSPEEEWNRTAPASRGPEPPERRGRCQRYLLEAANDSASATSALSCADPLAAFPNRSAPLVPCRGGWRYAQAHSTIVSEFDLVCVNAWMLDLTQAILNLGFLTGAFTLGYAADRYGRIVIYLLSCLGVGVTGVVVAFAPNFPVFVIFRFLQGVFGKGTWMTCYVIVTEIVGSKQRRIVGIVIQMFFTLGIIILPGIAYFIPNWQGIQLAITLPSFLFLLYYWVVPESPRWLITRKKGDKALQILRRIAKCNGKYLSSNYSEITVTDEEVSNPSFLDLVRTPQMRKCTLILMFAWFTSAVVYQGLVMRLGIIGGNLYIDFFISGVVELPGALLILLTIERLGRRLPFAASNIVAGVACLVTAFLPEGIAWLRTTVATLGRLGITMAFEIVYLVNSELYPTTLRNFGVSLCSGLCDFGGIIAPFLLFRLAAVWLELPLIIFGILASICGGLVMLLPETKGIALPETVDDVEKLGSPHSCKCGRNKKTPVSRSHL
Experimental: (§1) The wild-type cell lines of OCT1 and OCT2, as well as the variant cell lines OCT1*2 and *3, were generated using the Flp-In system (Thermo Fisher Scientific, Darmstadt, Germany) as described in previous publications. The cell line overexpressing OCT3 was a kind gift from Dr. Koepsell and Dr. Gorbulev (University of Würzburg, Germany). Cells transfected with the empty pcDNA5/FRT vector were used for the transport experiments as a control cell line. All cells were cultured approximately up to passage 30.
(§2) Forty-eight hours before the transport experiments, 600,000 cells were plated on 12-well plates pre-coated with poly-D-lysine and incubated at 37 °C with 5% CO2. The prepared 12-well plate with cells was positioned on a heating plate pre-warmed to 37 °C. After removing the medium, the cells were washed with 37 °C HBSS+ (10 mM HEPES in Hank’s balanced salt solution, pH 7.4). Then, one pre-defined concentration of a substrate was added to each well. The incubation period was stopped by adding 2 mL of 4 °C HBSS+ and removing the cells from the heating plate. The cells were washed twice with 4 °C HBSS+. For cell lysis, the cells were incubated for 15 min with 500 µL of 80% acetonitrile (LGC Standards, Wesel, Germany), which contained a respective internal standard (Table 1).
(§3) For concentration-dependent transport, the cells were incubated with defined substrate concentrations (0.1, 1, 10, 30, 100, 300, 600, 1000 µM) for the respective pre-defined incubation times. […] The uptake by a transporter was normalised to the uptake by empty vector-transfected cells. […] The results of transport experiments were normalized to the total protein concentration per well. Total protein quantification was performed using a bicinchoninic acid assay with bovine serum albumin as standard.
(§4) The ratios of cellular uptake were calculated by dividing the total uptake of transporter-overexpressing cells by the total uptake into empty vector transfected cells. The concentration-dependent cellular net uptake was used for analysis of transport kinetics by subtracting for each substrate concentration the uptake of empty vector-transfected cells from the uptake of transporter-overexpressing cells. […] The intrinsic clearance Clint was expressed with the ratio of Vmax and KM.

wild-type human OCT2 = target: T3, wild-type human OCT2 (Homo sapiens, UniProt O15244); test: Cellular uptake ratio, OCT2-overexpressing HEK293 cells vs empty vector; assay type: cell-based; details: based on ratio uptake data at 1 µM
T3 sequence (O15244 1-555): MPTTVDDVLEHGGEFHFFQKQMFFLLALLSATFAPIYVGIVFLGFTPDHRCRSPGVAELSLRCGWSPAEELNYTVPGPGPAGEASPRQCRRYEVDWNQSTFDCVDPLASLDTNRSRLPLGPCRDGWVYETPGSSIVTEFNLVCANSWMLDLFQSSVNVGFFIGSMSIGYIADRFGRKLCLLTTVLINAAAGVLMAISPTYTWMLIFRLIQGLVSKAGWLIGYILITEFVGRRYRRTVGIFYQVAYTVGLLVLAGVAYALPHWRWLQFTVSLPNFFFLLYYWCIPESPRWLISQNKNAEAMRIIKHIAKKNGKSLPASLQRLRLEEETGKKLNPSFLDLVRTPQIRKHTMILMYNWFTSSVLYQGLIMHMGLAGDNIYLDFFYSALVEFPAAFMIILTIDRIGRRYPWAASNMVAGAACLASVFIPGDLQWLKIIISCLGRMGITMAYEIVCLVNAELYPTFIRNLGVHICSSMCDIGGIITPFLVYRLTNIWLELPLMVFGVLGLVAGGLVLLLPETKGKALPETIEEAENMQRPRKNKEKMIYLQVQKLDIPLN
Experimental: as §1, §2, §3, §4

OCT1 (wild-type, OCT1*1) = OCT1 (wild-type, OCT1*1) (Homo sapiens, UniProt O15245); test: Concentration-dependent uptake (transport kinetics) in HEK293 cells overexpressing OCT1 wild-type; details: human, HEK293 cells stably overexpressing human OCT1*1 (wild-type), pH 7.4, KM (±SEM), net uptake (OCT1 minus empty vector), HEK293, 0.1-1000 µM substrate, Michaelis–Menten
human OCT1*1 (wild-type) [2] = target: T1, human OCT1*1 (wild-type); test: Cellular uptake ratio, OCT1-overexpressing HEK293 cells vs empty vector; assay type: cell-based; details: for OCT1 transport category: based on ratio uptake data at 1 µM
Experimental: as §1, §2, §3, §4

[3] = human; no reference given; cited from earlier work
[4] = Human pharmacokinetic background values; assay type: in vivo; details: blood, conversion of the KM of about 60 µM, read-out: blood concentration corresponding to KM
[5] = substrate: N=C(N)c1ccc(OCCCCCOc2ccc(C(=N)N)cc2)cc1; test: cells, lysate or membranes; details: other: net uptake (OCT1 minus empty vector), HEK293, 0.1-1000 µM substrate, Michaelis–Menten; pH 7.4
[6] = substrate: COc1cc(Cc2cnc(N)nc2N)cc(OC)c1OC; test: cells, lysate or membranes; details: other: net uptake (OCT1 minus empty vector), HEK293, 0.1-1000 µM substrate, Michaelis–Menten; pH 7.4
[7] = substrate: Nc1nc2c(ncn2COCCO)c(=O)[nH]1; test: cells, lysate or membranes; details: other: net uptake (OCT1 minus empty vector), HEK293, 0.1-1000 µM substrate, Michaelis–Menten; pH 7.4
[8] = substrate: C[N+]1(C)CCC[C@H]1C(=O)[O-]; test: cells, lysate or membranes; details: other: net uptake (OCT1 minus empty vector), HEK293, 0.1-1000 µM substrate, Michaelis–Menten; pH 7.4
[9] = substrate: C[C@](N)(Cc1ccc(O)c(O)c1)C(=O)O; test: cells, lysate or membranes; details: other: net uptake (OCT1 minus empty vector), HEK293, 0.1-1000 µM substrate, Michaelis–Menten; pH 7.4
[10] = substrate: Nc1ccn([C@H]2CC[C@@H](CO)O2)c(=O)n1; test: cells, lysate or membranes; details: other: net uptake (OCT1 minus empty vector), HEK293, 0.1-1000 µM substrate, Michaelis–Menten; pH 7.4
[11] = substrate: CNS(=O)(=O)Cc1ccc2[nH]cc(CCN(C)C)c2c1; test: cells, lysate or membranes; details: other: net uptake (OCT1 minus empty vector), HEK293, 0.1-1000 µM substrate, Michaelis–Menten; pH 7.4
[12] = substrate: Nc1ccn([C@@H]2CS[C@H](CO)O2)c(=O)n1; test: cells, lysate or membranes; details: other: net uptake (OCT1 minus empty vector), HEK293, 0.1-1000 µM substrate, Michaelis–Menten; pH 7.4
[13] = substrate: Nc1nc(=O)n([C@@H]2CS[C@H](CO)O2)cc1F; test: cells, lysate or membranes; details: other: net uptake (OCT1 minus empty vector), HEK293, 0.1-1000 µM substrate, Michaelis–Menten; pH 7.4
[14] = substrate: N[C@@H](Cc1ccc(O)c(O)c1)C(=O)O; test: cells, lysate or membranes; details: other: net uptake (OCT1 minus empty vector), HEK293, 0.1-1000 µM substrate, Michaelis–Menten; pH 7.4
[15] = substrate: C[C@H]1COc2c(N3CCN(C)CC3)c(F)cc3c(=O)c(C(=O)O)cn1c23; test: cells, lysate or membranes; details: other: net uptake (OCT1 minus empty vector), HEK293, 0.1-1000 µM substrate, Michaelis–Menten; pH 7.4
[16] = substrate: CCCCC[C@H](O)/C=C/[C@H]1[C@H](O)CC(=O)[C@@H]1C/C=C\CCCC(=O)O; test: cells, lysate or membranes; details: pH 7.4
[17] = other: net uptake (OCT1 minus empty vector), HEK293, 0.1-1000 µM substrate, Michaelis–Menten

Nc1nnc(-c2cccc(Cl)c2Cl)c(N)n1 [Lamotrigine, lamotrigine]
Km (hCMEC/D3): 62 µM | Clint (±SEM) (human OCT1*1 (wild-type) [1]): 2.77 ± 5.66 µL/mg Protein/min | OCT3 transport category (OCT3): +/− (poor transport with a Clint < 5 or ratio between 1–2 with statistical significance (p < 0.05))

CNC(=C[N+](=O)[O-])NCCSCc1ccc(CN(C)C)o1 [Ranitidin, ranitidine]
OCT2 transport category (wild-type human OCT2): + (good substrates of OCTs when the intrinsic clearance is between 5–15 or the ratio is 2–10) | Vmax (±SEM) (human OCT1*1 (wild-type) [1]; net uptake (OCT1 minus empty vector), HEK293, 0.1-1000 µM substrate, Michaelis–Menten): 1047 ± 123 pmol/mg Protein/min | Km (OCT1 (wild-type, OCT1*1)): 54.5 ± 7.2 µM | OCT3 transport category (OCT3): 0 (no transport by OCT1, OCT2, and OCT3 occurred (i.e., no kinetic parameters or uptake ratio <2 without significance)) | OCT1 transport category (human OCT1*1 (wild-type) [2]): ++ (very good substrates of OCTs that have an intrinsic clearance >15 or show an uptake ratio >10)

CNS(=O)(=O)Cc1ccc2[nH]cc(CCN(C)C)c2c1 [Sumatriptan, sumatriptan]
OCT2 transport category (wild-type human OCT2): ++ (very good substrates of OCTs that have an intrinsic clearance >15 or show an uptake ratio >10) | Clint (±SEM) (human OCT1*1 (wild-type) [1]): 36.8 ± 7.32 µL/mg Protein/min | uptake by OCT3 (normalised to empty vector) (OCT3; 1 µM substance): relevant uptake | OCT3 transport category (OCT3): + (good substrates of OCTs when the intrinsic clearance is between 5–15 or the ratio is 2–10) | typical human maximum blood concentration [3]: about 30 µg/L | Km [4]: ~17.8 µg/mL | uptake ratio by OCT1 (normalised to empty vector) (human OCT1*1 (wild-type) [2]; 1 µM and 100 µM substance): up to 30 | OCT1 transport category (human OCT1*1 (wild-type) [2]): ++ (very good substrates of OCTs that have an intrinsic clearance >15 or show an uptake ratio >10)

B1: human OCT1*1 (wild-type) (Homo sapiens) (protein)
chain: MPTVDDILEQVGESGWFQKQAFLILCLLSAAFAPICVGIVFLGFTPDHHCQSPGVAELSQRCGWSPAEELNYTVPGLGPAGEAFLGQCRRYEVDWNQSALSCVDPLASLATNRSHLPLGPCQDGWVYDTPGSSIVTEFNLVCADSWKLDLFQSCLNAGFLFGSLGVGYFADRFGRKLCLLGTVLVNAVSGVLMAFSPNYMSMLLFRLLQGLVSKGNWMAGYTLITEFVGSGSRRTVAIMYQMAFTVGLVALTGLAYALPHWRWLQLAVSLPTFLFLLYYWCVPESPRWLLSQKRNTEAIKIMDHIAQKNGKLPPADLKMLSLEEDVTEKLSPSFADLFRTPRLRKRTFILMYLWFTDSVLYQGLILHMGATSGNLYLDFLYSALVEIPGAFIALITIDRVGRIYPMAMSNLLAGAACLVMIFISPDLHWLNIIIMCVGRMGITIAIQMICLVNAELYPTFVRNLGVMVCSSLCDIGGIITPFIVFRLREVWQALPLILFAVLGLLAAGVTLLLPETKGVALPETMKDAENLGRKAKPKENTIYLKVQTSEPSGT
Km [5]: 124 ± 136 µM | Km [6]: 4.78 ± 1.24 µM | Km [7]: 142 ± 189 µM | Km [8]: 881 ± 910 µM | Km [9]: 647 ± 335.6 µM | Vmax [9]: 0.00384 µmol/min/mg | Vmax/Km [9]: 5.94 µL/min/mg | Km [10]: 1194 ± 193 µM | Vmax [10]: 0.00307 µmol/min/mg | Vmax/Km [10]: 2.57 µL/min/mg | Km [11]: 60 µM and 58.9 ± 5.1 µM | Vmax [11]: 0.00217 µmol/min/mg | Vmax/Km [11]: 36.8 µL/min/mg | Km [12]: 232 ± 43.0 µM | Km [13]: 1123 ± 335 µM | Vmax [13]: 0.0069 µmol/min/mg | Vmax/Km [13]: 6.15 µL/min/mg | Km [14]: 363 ± 163 µM | Km [15]: 3326 ± 1458 µM | Km ([16]; other: OCT1 wild-type, rounded in discussion): 1000 µM | Km [16, 17]: 1177 ± 744 µM | Vmax [16, 17]: 0.00412 µmol/min/mg | Vmax/Km [16, 17]: 3.5 µL/min/mg
